From patent US20260167714A1 (COHERUS BIOSCIENCES, published 2026)

How the values were obtained:
[1] = target: T1, human ILT4 expressed on cells (human, UniProt Q8N423 22-597); experiment: flow cytometry, blockade of PE-HLA-G tetramer binding to CHO-S/ILT4 cells, experiment 2
T1 construct: whole, on cells; also called CHO-S/ILT4 cells; ILT4-CHO cells
Experimental: (§1) In the second blocking experiment, the primary antibody dilutions were made by diluting antibody to 15 μg/ml in FACS buffer. Three independent sets of eleven 2.5-fold serial dilutions were then made in FACS buffer from 15 μg/ml to 0.002 μg/ml. Each dilution set was handled independently, and 50 μl from each was added to cells in duplicate. Control wells received FACS buffer with no antibody. Wells were mixed and incubated for 30 minutes at 4 degrees C. Cells were washed twice in FACS buffer.
(§2) In both blocking experiments, phycoerythrin (PE)-conjugated HLA-G tetramer was diluted in FACS buffer to 5 μg/ml and 100 μl per well was added to cells. Cells were incubated at 4 degrees C. for 30 minutes, washed twice in FACS buffer, and resuspended in 250 μl FACS buffer with 0.1 μg/ml propidium iodide.
(§3) Cells were acquired on an Attune flow cytometer, with 5000 propidium iodide-negative cells collected per sample, and MFI was recorded. Relative blocking activity was calculated with the following formula: 100−(Sample MFI−Background MFI)/(Top MFI−Background MFI)*100. Prism software (Graphpad) was used to plot MFI and relative blocking activity for each sample. The blocking potency for each antibody, represented as IC₅₀, was calculated with Prism software.

[2] = target: T1, human ILT4 expressed on cells; experiment: flow cytometry, blockade of PE-HLA-G tetramer (5 µg/ml) binding to CHO-S/ILT4 cells, experiment 2
Experimental: as §1, §2, §3

[3] = target: T2, recombinant human ILT4 (LILRB2) (human, UniProt Q8N423 22-460); experiment: KinExA, solution equilibrium, n-curve analysis
T2 construct: Bought protein (Acro Biosystems or R&D Systems); also called ILTR4
Experimental: Kinetic Exclusion Assay (KinExA®) was performed to measure the equilibrium binding affinity and kinetics between human ILT4 and four humanized LALA-Fc modified antibodies in solution. For affinity analysis, the equilibrium dissociation constant, KD, was experimentally determined and reflects the strength of the binding interaction. The rate of association, kₒₙ, was also experimentally determined, while the rate of dissociation, koff, is calculated based on the following equation: koff=KD×kₒₙ
The binding affinity (KD), association (kₒₙ), and dissociation rate constants (koff) were measured for 4 different Humanized LALA IgG antibodies to ILT4 using KinExA. An n-curve analysis of at least two different curves, run at two different CBP concentrations, was used to determine the KD of the interactions The ILT4 was used as the concentration reference for all curves. All of the binding systems have low error and well defined 95% confidence intervals giving confidence to the measurements: […]

[4] = target: T2, recombinant human ILT4 (LILRB2); experiment: SPR, Biacore 8K, mAb captured on anti-human Fc, LILRB2 at 100 nM; legend: ++++ tight binding (<100 pM KD)
Experimental: (§4) SPR was used to determine the specificity of four humanized anti-ILT4 mAbs for binding to LILRB2 and to determine any cross-reactivity with nine other LILRA and LILRB family members. LILR proteins were purchased from Acro Biosystems or R&D Systems, with sequence provided below. The studies were performed with a Biacore 8K instrument using a CM4 sensor chip with a running buffer of HBS-P+, 100 μg/mL BSA. Anti-human Fc specific capture surfaces were prepared using standard amine coupling chemistry. MAb was captured to flow cell 2 with flow cell 1 serving as the reference flow cell. Each of the nine family members and LILRB2 were injected at 100 nM at 30 μL/min for 90 sec with 240 sec of dissociation. […] All sensorgrams were doubled-referenced during processing of the data.

LILRA6 = target: T3, LILRA6 (human, UniProt Q6PI73 24-447); experiment: SPR, Biacore 8K, mAb captured on anti-human Fc, analyte injected
T3 construct: Bought protein; limits of the extracellular domain are marked by bold type not visible here; whole entry named; also called recombinant human LILRA6
Experimental: as §4

LILRA4 = target: T4, LILRA4 (human, UniProt P59901 24-446); experiment: as above
T4 construct: Bought protein; limits of the extracellular domain are marked by bold type not visible here; whole entry named; also called recombinant human LILRA4
Experimental: as §4

LILRA5 = target: T5, LILRA5 (human, UniProt A6NI73 42-268); experiment: as above
T5 construct: Bought protein; limits of the extracellular domain are marked by bold type not visible here; whole entry named; also called recombinant human LILRA5
Experimental: as §4

LILRA3 = target: T6, LILRA3 (human, UniProt Q8N6C8 24-439); experiment: as above
T6 construct: Bought protein; limits of the part used are marked by bold type not visible here; whole entry named; also called recombinant human LILRA3
Experimental: as §4

LILRB3 = target: T7, LILRB3 (human, UniProt O75022 24-443); experiment: as above
T7 construct: Bought protein; limits of the extracellular domain are marked by bold type not visible here; whole entry named; also called recombinant human LILRB3; ILT5
Experimental: as §4

LILRA2 = target: T8, LILRA2 (human, UniProt Q8N149 24-449); experiment: as above
T8 construct: Bought protein; limits of the extracellular domain are marked by bold type not visible here; whole entry named; also called recombinant human LILRA2
Experimental: as §4

LILRA1 = target: T9, LILRA1 (human, UniProt O75019 17-461); experiment: as above
T9 construct: Bought protein; limits of the extracellular domain are marked by bold type not visible here; whole entry named; also called recombinant human LILRA1
Experimental: as §4

LILRB1 = target: T10, LILRB1 (human, UniProt Q8NHL6 24-461); experiment: as above
T10 construct: Bought protein; limits of the extracellular domain are marked by bold type not visible here; whole entry named; also called recombinant human LILRB1; ILT2
Experimental: as §4

LILRB4 = target: T11, LILRB4 (human, UniProt Q8NHJ6 22-259); experiment: as above
T11 construct: Bought protein; limits of the extracellular domain are marked by bold type not visible here; whole entry named; also called recombinant human LILRB4; ILT3
Experimental: as §4

[5] = target: T2, recombinant human ILT4 (LILRB2); experiment: SPR, high resolution kinetics, triplicate, LALA antibody; 95% CI in parentheses
[6] = target: T2, recombinant human ILT4 (LILRB2); experiment: SPR, Biacore T200, mAb captured on anti-Fc, ILT4 injected, medium resolution, 25 C
Experimental: (§5) Label-free SPR analysis on a Biacore T200 instrument was utilized to measure antibody affinity to ILT4. CM4 sensor chips from Cytiva Inc. were utilized for all medium resolution analyses. Either anti-mouse Fc specific or anti-human Fc specific capture surfaces were prepared using standard amine coupling chemistry. Mouse, Chimera or Humanized mAbs were captured to their respective surfaces and ILT4 was injected across the surfaces from 101 nM to 0.79 nM in a 2-fold serial dilution series at a flow rate of 100 μL/min. The association phase was followed for 90 sec. while the dissociation phase was followed for 1200 sec. due to the medium resolution analysis implemented here. The sensorgrams were double-referenced and fit globally to a 1:1 interaction model with a term included for mass transport, and the equilibrium dissociation constant was calculated as KD=koff/kₒₙ. […] All kinetic experiments were performed at 25° C. in a buffer consisting of Hepes-buffered saline, pH 7.4, with 0.05% polysorbate 20 (HBS-P+) and 100 μg/ml Bovine Serum Albumin (BSA).

[7] = target: T2, recombinant human ILT4 (LILRB2); experiment: SPR, Biacore T200, medium resolution; koff held at its limit of 4.27e-5 s^-1
Experimental: as §5

[8] = target: T2, recombinant human ILT4 (LILRB2); experiment: SPR, high resolution kinetics, triplicate, LALA antibody
[9] = target: T1, human ILT4 expressed on cells; experiment: flow based HLA-G blocking assay
[10] = target: T1, human ILT4 expressed on cells; experiment: flow cytometry blocking assay: ILT4-expressing CHO cells preincubated with antibody, then PE-HLA-G; HLA-G binding MFI falls from about 105000 (no antibody) to near 0
Experimental: as §1, §2, §3

[11] = target: T1, human ILT4 expressed on cells; experiment: cell-based or functional assay

T2 sequence (Q8N423 other isoform, or with tags, fused parts or gaps limits assumed): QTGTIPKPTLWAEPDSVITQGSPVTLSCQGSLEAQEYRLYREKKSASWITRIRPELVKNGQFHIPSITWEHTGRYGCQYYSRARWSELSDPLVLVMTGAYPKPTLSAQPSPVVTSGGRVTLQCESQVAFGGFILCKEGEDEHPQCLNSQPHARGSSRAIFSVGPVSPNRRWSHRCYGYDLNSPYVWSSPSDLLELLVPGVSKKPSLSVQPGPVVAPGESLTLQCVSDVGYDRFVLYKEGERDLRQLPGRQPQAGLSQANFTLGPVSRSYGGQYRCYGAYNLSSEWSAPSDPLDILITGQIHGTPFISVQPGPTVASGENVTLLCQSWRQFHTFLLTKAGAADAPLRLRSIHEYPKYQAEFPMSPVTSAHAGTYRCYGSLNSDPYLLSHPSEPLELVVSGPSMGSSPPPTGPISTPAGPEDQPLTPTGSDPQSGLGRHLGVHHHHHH
T1 sequence (Q8N423 22-597): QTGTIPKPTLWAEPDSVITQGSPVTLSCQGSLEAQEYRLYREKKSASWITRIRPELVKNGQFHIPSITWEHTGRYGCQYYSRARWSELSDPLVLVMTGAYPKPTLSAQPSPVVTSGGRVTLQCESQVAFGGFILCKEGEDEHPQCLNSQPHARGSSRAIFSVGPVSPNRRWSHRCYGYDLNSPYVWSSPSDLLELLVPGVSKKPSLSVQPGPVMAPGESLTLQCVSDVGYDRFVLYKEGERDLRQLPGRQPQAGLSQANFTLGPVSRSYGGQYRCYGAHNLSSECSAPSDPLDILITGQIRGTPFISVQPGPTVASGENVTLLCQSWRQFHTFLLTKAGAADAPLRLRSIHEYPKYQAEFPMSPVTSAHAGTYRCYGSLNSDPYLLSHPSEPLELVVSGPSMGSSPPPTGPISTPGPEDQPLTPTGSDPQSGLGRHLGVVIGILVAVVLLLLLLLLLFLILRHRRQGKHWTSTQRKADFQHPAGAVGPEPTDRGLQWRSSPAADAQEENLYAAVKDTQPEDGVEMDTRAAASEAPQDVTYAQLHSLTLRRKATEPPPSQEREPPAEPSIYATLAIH
T5 sequence (A6NI73 other isoform, or with tags, fused parts or gaps): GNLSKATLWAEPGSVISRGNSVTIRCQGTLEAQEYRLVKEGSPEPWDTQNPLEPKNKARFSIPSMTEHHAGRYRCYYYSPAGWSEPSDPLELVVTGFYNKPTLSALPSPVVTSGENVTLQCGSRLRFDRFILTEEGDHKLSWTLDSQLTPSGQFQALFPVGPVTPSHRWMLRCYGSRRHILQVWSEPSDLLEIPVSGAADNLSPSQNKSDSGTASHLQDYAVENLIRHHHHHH
T4 sequence (P59901 other isoform, or with tags, fused parts or gaps): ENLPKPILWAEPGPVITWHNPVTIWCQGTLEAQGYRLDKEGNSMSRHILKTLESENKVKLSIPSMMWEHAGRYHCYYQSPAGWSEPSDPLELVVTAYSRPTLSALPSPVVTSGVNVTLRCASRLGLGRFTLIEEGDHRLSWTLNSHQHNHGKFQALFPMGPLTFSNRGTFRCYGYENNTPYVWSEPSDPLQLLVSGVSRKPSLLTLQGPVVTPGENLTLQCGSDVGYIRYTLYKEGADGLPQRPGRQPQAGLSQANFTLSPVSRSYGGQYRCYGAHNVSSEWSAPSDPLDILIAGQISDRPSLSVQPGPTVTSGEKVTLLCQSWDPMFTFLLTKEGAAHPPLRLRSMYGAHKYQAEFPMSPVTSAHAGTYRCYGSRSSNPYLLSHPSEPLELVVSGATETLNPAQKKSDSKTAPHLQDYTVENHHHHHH
T7 sequence (O75022 other isoform, or with tags, fused parts or gaps): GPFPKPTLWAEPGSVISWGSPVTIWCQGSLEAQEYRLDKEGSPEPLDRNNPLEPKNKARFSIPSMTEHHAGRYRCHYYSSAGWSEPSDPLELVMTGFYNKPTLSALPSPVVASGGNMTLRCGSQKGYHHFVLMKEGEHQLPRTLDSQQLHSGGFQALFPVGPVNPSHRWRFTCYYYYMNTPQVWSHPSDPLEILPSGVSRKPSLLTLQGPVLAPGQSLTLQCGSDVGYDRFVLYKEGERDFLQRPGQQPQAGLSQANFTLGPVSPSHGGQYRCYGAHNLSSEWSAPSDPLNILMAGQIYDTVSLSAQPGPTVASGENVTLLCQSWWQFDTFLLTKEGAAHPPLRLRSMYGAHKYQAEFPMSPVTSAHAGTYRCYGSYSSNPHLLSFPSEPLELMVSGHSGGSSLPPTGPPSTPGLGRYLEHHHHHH
T11 sequence (Q8NHJ6 other isoform, or with tags, fused parts or gaps): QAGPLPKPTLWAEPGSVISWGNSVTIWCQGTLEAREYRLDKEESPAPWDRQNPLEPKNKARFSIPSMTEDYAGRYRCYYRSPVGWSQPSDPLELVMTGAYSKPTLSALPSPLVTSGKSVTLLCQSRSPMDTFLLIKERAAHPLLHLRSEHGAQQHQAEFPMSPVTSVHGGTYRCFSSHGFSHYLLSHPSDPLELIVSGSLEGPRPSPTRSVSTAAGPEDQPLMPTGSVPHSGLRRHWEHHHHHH
T6 sequence (Q8N6C8 24-439 A105V limits assumed): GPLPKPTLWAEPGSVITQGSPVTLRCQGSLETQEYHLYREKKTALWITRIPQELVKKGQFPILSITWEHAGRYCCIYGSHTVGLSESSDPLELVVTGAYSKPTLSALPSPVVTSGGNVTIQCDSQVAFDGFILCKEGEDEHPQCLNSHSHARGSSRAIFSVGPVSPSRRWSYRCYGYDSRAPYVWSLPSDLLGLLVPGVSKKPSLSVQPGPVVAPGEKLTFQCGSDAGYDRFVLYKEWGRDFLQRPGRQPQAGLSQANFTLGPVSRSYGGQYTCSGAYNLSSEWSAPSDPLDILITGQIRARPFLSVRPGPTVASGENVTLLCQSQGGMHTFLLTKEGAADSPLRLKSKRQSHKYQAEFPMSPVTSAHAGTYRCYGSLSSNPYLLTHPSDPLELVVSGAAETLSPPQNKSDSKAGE
T3 sequence (Q6PI73 other isoform, or with tags, fused parts or gaps): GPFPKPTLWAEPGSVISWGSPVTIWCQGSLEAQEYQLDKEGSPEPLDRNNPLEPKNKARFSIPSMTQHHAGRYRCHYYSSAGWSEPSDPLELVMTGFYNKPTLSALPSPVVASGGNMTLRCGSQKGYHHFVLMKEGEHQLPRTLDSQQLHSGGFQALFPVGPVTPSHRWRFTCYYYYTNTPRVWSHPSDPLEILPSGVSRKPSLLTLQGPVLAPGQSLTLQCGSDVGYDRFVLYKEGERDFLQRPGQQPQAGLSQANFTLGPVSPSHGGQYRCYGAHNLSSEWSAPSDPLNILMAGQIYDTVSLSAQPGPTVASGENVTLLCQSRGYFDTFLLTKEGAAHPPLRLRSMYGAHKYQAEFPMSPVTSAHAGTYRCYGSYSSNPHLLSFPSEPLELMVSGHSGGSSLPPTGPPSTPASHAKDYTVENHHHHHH
T9 sequence (O75019 other isoform, or with tags, fused parts or gaps): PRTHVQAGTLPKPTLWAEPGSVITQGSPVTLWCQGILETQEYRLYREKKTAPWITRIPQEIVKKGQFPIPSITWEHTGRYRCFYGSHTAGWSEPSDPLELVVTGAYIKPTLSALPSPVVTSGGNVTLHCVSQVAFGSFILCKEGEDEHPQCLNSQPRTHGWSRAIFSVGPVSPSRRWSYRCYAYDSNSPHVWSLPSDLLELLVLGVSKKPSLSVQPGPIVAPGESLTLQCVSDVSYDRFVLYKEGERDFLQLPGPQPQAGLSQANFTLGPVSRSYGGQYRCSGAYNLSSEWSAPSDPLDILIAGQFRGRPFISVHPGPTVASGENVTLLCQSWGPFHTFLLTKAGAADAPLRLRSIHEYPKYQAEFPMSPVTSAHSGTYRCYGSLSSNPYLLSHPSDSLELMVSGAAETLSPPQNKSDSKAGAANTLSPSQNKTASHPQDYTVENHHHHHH
T8 sequence (Q8N149 other isoform, or with tags, fused parts or gaps): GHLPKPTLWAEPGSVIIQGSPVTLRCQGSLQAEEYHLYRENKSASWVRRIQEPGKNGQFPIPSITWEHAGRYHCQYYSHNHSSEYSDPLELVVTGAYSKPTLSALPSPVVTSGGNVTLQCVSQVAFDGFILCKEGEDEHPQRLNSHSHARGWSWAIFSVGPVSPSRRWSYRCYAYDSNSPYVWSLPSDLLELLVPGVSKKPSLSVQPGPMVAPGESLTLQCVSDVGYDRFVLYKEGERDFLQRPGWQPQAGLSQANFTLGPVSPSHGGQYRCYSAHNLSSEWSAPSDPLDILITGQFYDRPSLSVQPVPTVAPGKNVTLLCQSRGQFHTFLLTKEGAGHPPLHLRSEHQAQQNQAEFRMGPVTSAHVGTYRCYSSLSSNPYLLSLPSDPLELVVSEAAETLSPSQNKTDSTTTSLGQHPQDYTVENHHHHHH
T10 sequence (Q8NHL6 other isoform, or with tags, fused parts or gaps): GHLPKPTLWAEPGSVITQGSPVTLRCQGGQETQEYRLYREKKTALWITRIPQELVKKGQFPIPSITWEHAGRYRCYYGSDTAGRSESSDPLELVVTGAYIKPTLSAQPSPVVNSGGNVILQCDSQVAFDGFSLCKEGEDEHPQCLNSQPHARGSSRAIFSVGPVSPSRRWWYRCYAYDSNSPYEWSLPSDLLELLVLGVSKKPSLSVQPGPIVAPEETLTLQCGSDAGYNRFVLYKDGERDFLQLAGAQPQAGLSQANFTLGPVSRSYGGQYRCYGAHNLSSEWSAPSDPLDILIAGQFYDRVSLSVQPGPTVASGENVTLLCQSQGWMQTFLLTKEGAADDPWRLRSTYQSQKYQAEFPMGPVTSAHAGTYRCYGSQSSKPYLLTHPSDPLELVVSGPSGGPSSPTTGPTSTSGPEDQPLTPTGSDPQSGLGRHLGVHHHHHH

B1: L41S5 (antibody, IgG2a, V domains shown)
VH: QVQLQQSGAELVKPGASVKISCKASGYAFSSYWMNWVKQRPGKGLEWIGQIYPGHGDTNYNGKFKGKATLTADKSSSTAYMQLSSLTSEDSAVYFCAKEGSELGRLFAYWGQGTLVTVSA
VL: QIVLTQSPALMSASPGEKVTMTCSASSSVSFMYWYQQKPRSSPKPWIYLTSNLASGVPARFSGSGSGTSYSLTISSMEAEDAATYYCQQWSSNPPTFGGGTKLEIK
notes: also called mouse anti-human ILT4 antibody L41S5
With B1 the “fold decrease of PE-HLA-G MFI” value [1] was at most 14 fold and the IC50 [2] was 0.134 µg/mL.

B2: Hz77-LALA (antibody, human IgG1, kappa, L234A L235A, V domains shown)
VH: QVQLVQSGAEVKKPGSSVKVSCKASGYSFTGYSVNWVRQAPGQGLEWIGRINPYNGDIFNNQKFKGRATITVDKSTSTAYMELSSLRSEDTAVYYCARGTTVGGAWFAYWGQGTLVTVSS
VL: DIVMTQSPDSLAVSLGERATINCRASESVDSYGYSFLHWYQQKPGQPPKLLIYLASNLESGIPDRFSGSGSGTDFTLTISSLQAEDVAVYYCQQSNEDLMYTFGGGTKVEIKR
notes: Humanized L77S2, human IgG1 L234A/L235A, kappa; also called Humanized 77_01; Hz 77 01
With B2 the Kd [3] was 0.00546 nM, the KD [4] was under 0.1 nM and the binding result (LILRA6) was “no binding (tested: 100 nM)”. B2: no binding (tested: 100 nM) (LILRA4); no binding (tested: 100 nM) (LILRA5); no binding (tested: 100 nM) (LILRA3). B2: no binding (tested: 100 nM) (LILRB3); no binding (tested: 100 nM) (LILRA2); no binding (tested: 100 nM) (LILRA1). The binding result (LILRB1) was “no binding (tested: 100 nM)”, the binding result (LILRB4) was “no binding (tested: 100 nM)” and the kon [5] was 4.78e+06 M⁻¹ s⁻¹. For the same binder, the kon [6] was 835000 M⁻¹ s⁻¹, the Kd [7] was at most 0.052 nM and the koff [7] was at most 4.27e-05 s⁻¹. It also gave a Kd [8] of 0.0089 nM, a koff [8] of 4.24e-05 s⁻¹ and an IC50 [9] of 0.176 µg/mL.

B3: L45S4 (antibody, IgG2a, V domains shown)
VH: EVQLQQSGPELVKPGASVKISCKASGYTFTDYYMNWVKQSHGKSLEWIGDINPNNGGTSYNQKFKGKATLTVDKSSSTAYMELRSLTSEDSAVYYCARGGAELTGTYWYFDVWGTGTTVTVSS
VL: DIQMTQSPASLSISVGETVTITCRASENIYSNLAWYQQKQGKSPQVLVYGATNLADGVPSRFSGSGSGTQYSLKIKSLQSEDFGSYYCQHFWDSPFTFGSGTKLEIK
notes: also called Murine 45; mouse anti-human ILT4 antibody L45S4
In the case of B3, the “fold decrease of PE-HLA-G MFI” value [1] is reported as at most 69 fold, the IC50 [10] is reported as 0.071 µg/mL and the Kd [6] is reported as 0.21 nM. The koff [6] was 8.4e-05 s⁻¹, the kon [6] was 401000 M⁻¹ s⁻¹ and the “IL-6 secretion by LPS-stimulated M2 macrophages (MSD), fold over control” value [11] was 2 fold. The IC50 [2] was 0.044 µg/mL.
